In US12122842 (R AND D SYSTEMS, dated 2024):

Key:
[1] = biological target: T1, human CD30/TNFRSF8 on Jurkat human acute T cell leukemia cells (Clone E6-1) (human, UniProt P28908 19-595); experiment: flow cytometry on Jurkat cells, PE anti-mouse IgG secondary
T1 construct: Endogenous CD30 on Jurkat cells; also called hCD30; hCD30/TNFRSF8
T1 sequence: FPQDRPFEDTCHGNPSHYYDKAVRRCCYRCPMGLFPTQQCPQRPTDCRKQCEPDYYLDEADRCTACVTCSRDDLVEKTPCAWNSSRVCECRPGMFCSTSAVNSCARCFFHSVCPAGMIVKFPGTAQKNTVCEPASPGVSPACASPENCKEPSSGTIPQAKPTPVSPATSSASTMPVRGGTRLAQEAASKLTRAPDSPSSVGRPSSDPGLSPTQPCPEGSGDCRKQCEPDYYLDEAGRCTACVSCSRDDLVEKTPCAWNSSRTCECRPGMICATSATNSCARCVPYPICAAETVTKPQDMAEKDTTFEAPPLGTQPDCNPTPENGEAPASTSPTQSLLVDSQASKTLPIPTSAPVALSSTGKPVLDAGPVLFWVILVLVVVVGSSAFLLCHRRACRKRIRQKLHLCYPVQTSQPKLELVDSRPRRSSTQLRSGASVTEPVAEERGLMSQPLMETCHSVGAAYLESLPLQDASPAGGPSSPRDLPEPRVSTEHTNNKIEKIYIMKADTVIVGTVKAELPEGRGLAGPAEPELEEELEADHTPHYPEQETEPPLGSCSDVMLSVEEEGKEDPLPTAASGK
Description: Jurkat human acute T cell leukemia cell line (Clone E6-1, ATCC Catalog #TIB-152) was stained with Mouse Anti-Human CD30 Monoclonal Antibody (Clone 81316.11, filled histogram) or isotype control antibody (Catalog #MAB002, open histogram), followed by Phycoerythrin-conjugated Anti-Mouse IgG Secondary Antibody (Catalog #F0102B).
Jurkat cells were harvested and washed two times in 2 mL of 1x flow staining buffer (FC001). The cells were resuspended in 1x flow staining buffer to a concentration of ~1.0×10⁶ cells/mL. About 90 µL of the cell suspension was added to each flow tube. About 10 µL of either 25 µg/mL Msxh CD30 or MsIgG1 was added to the appropriate tube, and the tubes were vortexed and then incubated for 20 minutes at room temperature. Cells were washed two times in 2 mL of 1× flow staining buffer. About 10 µL of goat anti-Mouse IgG PE secondary antibody was added to each tube, vortexed, and then incubated in the dark for 20 minutes at room temperature. Cells were washed two times in 2 mL of 1× flow staining buffer. 100 µL of 2× Sytox Blue Dead Cell Stain (ThermoFisher, S34857) was added and the cells were analyzed by flow cytometry.

[2] = biological target: T2, recombinant human CD30 protein (UniProt P28908 19-385); experiment: SPR
T2 chain: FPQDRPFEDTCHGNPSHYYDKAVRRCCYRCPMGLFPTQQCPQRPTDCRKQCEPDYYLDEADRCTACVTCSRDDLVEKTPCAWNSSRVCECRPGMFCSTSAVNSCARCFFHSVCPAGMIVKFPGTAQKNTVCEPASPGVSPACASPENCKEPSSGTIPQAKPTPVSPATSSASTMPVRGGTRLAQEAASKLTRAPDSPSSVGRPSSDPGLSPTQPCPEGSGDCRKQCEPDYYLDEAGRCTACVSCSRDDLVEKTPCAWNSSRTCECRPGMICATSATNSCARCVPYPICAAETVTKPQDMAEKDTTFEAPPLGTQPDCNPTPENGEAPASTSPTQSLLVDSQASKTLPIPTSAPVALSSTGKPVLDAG

binding result [1]: binds
Kd [2]: 5.1 nM
B1: Mouse Anti-Human CD30 Monoclonal Antibody (Clone 81316.11) (antibody, V domains shown)
VH: QVQLKESGPGLVAPSQSLSITCTVSGFSLTSYGVHWVRQPPGKGLEWLGVIWAGETINYNLALMSRLSISKDNSKSQVFLKMNSLQTEDTAMYYCARDQGEYGNYGWYFDVWGAGTTVTVSS
VL: DIQMTQTTSSLSASLGDRVTISCSASQGISNYLNWYQQKPDGTVKLLIYYTSSLHSGVPSRFSGSGSGTDYSLTISNLEPEDIATYYCQHYSKLPPTFGGGTKLEIKR
notes: It is a mouse monoclonal, and the isotype control used beside it is MsIgG1; also called anti-hCD30 antibody; recombinant hCD30 antibody
